Measurements: the supplement of paper PMC10201428
± gives the standard deviation of the averaged measurements.

Columns and labels:
[1] = tested on: VchCAST RNA-guided transposition machinery (E. coli BL21(DE3) host, lacZ target); assay: relative integration efficiency (T-LR orientation) vs wild-type transposon end (log2 (normalized fold change)); transposon end mutated: left end; higher = more efficient transposition
Procedure, shortened: (§1)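 Each barcoded pool, 1549 left-end or 1849 right-end transposon variants in a pUC57 mini-transposon donor, went into E. coli BL21(DE3) with a T7-driven effector plasmid (CRISPR array, tniQ-cas8-cas7-cas6, tnsA-tnsB-tnsC). Plates contained 0.1 mM IPTG and were held at 37°C for 18 h. Input plasmids and genomic integration junctions were PCR-amplified and read by Illumina sequencing, with two biological output replicates and four reference barcodes. Relative integration efficiency is the fold change of output over input barcode abundance, normalised to the reference barcodes and log-transformed.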

[2] = tested on: VchCAST RNA-guided transposition machinery (E. coli BL21(DE3) host, lacZ target); assay: relative integration efficiency (T-RL orientation) vs wild-type transposon end (log2 (normalized fold change)); transposon end mutated: left end; higher = more efficient transposition
Procedure, shortened: as §1

Sequence | relative integration efficiency (log2) [1] | relative integration efficiency (log2) [2]
AATGTTGTTGATGCAACCATAAAGTGATATTTAATAATTATTTATACAACCATAAAGTGATATTTAACAACCATATATTGATATCTCACAAAACAACCATAAGTTGATATTTTTGTGAATCGAGTATTTCAGCAAAACTACTGCAGTAAGAA | -4.48 ± 0.05 | -6.31 ± 0.44
AATGTTGTTGATGCAACCATAAAGTGATATTTAATAATTATTTATACAACCATATATTGATATCTCATCAGCAACTTAACCACAAAAACAAAACAACCATAAGTTGATATTTTTGTGAATCGAGTATTTCAGCAAAACTACTGCAGTAAGAA | -1.08 ± 0.46 | -4.35 ± 0.47
AATGTTGTTGATGCAACCATAAAGTGATATTTAATAATTATTTATACGACTACCAGGCCAACACCCCACCAACGCGCGGTCGCGAGACACCCCACCAACGCCTGGTCGCGGGGGTGTCCGATCTGATTTCAGCAAAACTACTGCAGTAAGAA | -4.47 ± 0.46 | -6.45 ± 1.3
AATGTTGTTGATGCAACCATAAAGTGATATTTAATAATTATTTATCAACCATAAAGTGATATTTAACCAACCATATATTGATATCTCACAAAACAACCATAAGTTGATATTTTTGTGAATCGAGTATTTCAGCAAAACTACTGCAGTAAGAA | -2.57 ± 2 | -6.32 ± 2.1
AATGTTGTTGATGCAACCATAAAGTGATATTTAATAATTATTTATCAACCATATATTGATATCTCAATCAGCAACTTAACCACAAAAACAAAACAACCATAAGTTGATATTTTTGTGAATCGAGTATTTCAGCAAAACTACTGCAGTAAGAA | -2.91 ± 2.7 | -4.61 ± 1.4
AATGTTGTTGATGCAACCATAAAGTGATATTTAATAATTATTTATCAACCATATATTGATATCTCACAAAACAACCATAAGTTGATATTTTTGTGAATCGAGTATTTCAGCAAAACTACTGCAGTAAGAAAGTTACTTCGTGGTATGGGAGG | -3.55 ± 2.2 | -6.15 ± 0.83
AATGTTGTTGATGCAACCATAAAGTGATATTTAATAATTATTTCAACCATATATTGATATCTCACAAAACAACCATAAGTTGATATTTTTGTGAATCGAGTATTTCAGCAAAACTACTGCAGTAAGAAAGTTACTTCGTGGTATGGGAGGAT | -3.12 ± 1.5 | -6.94 ± 1.9
AATGTTGTTGATGCAACCATAAAGTGATATTTAATAATTATTTCGAACTAGTTAACTAGTACGCAAACAACCATATATTGATATCTCACAAAACAACCATAAGTTGATATTTTTGTGAATCGAGTATTTCAGCAAAACTACTGCAGTAAGAA | < -10 | -4.69 ± 1.4
AATGTTGTTGATGCAACCATAAAGTGATATTTAATAATTATTTCGCCGACTACCAGGCCAACACCCCACCAACGCGCGGTCGCGAGACACCCCACCAACGCCTGGTCGCGGGGGTGTCCGATCTGATTTCAGCAAAACTACTGCAGTAAGAA | -6.08 ± 3.8 | -7.27 ± 1.6
AATGTTGTTGATGCAACCATAAAGTGATATTTAATAATTCAACCATATATTGATATCTCATTTATAATCAGCAACTTAACCACAAAAACAAAACAACCATAAGTTGATATTTTTGTGAATCGAGTATTTCAGCAAAACTACTGCAGTAAGAA | -2.63 ± 2.9 | -3.05 ± 1.3
AATGTTGTTGATGCAACCATAAAGTGATATTTAATAATTGGCAGTGAGCGCAACGCAATTCACAAAACAACCATATATTGATATCTCACAAAACAACCATAAGTTGATATTTTTGTGAATCGAGTATTTCAGCAAAACTACTGCAGTAAGAA | -3.88 ± 2.9 | -2.76 ± 1
AATGTTGTTGATGCAACCATAAAGTGATATTTAATACAACCATAAAGTGATATTTAACTTAACCACACAACCATATATTGATATCTCACAAAACAACCATAAGTTGATATTTTTGTGAATCGAGTATTTCAGCAAAACTACTGCAGTAAGAA | -3.38 ± 1.9 | -5.26 ± 0.97
AATGTTGTTGATGCAACCATAAAGTGATATTTAATACAACCATATATTGATATCTCACAAAACAACCATAAGTTGATATTTTTGTGAATCGAGTATTTCAGCAAAACTACTGCAGTAAGAAAGTTACTTCGTGGTATGGGAGGATCAAGGAG | -2.15 ± 1.6 | -4.83 ± 1.7
AATGTTGTTGATGCAACCATAAAGTGATATTTAATACAACCATATATTGATATCTCATTATTTATAATCAGCAACTTAACCACAAAAACAAAACAACCATAAGTTGATATTTTTGTGAATCGAGTATTTCAGCAAAACTACTGCAGTAAGAA | -3.41 ± 3.5 | -4.61 ± 1.8
AATGTTGTTGATGCAACCATAAAGTGATATTTAATACGGCGGGCGCCGACTACCAGGCCAACACCCCACCAACGCGCGGTCGCGAGACACCCCACCAACGCCTGGTCGCGGGGGTGTCCGATCTGATTTCAGCAAAACTACTGCAGTAAGAA | -4.75 ± 2 | -6.9 ± 1.3
AATGTTGTTGATGCAACCATAAAGTGATATTTAATAGTACTGCGCGACTGAAATCATCATTAAAACGCAACCATATATTGATATCTCACAAAACAACCATAAGTTGATATTTTTGTGAATCGAGTATTTCAGCAAAACTACTGCAGTAAGAA | -3.4 ± 1.6 | -4.94 ± 0.88

Sequence | relative integration efficiency (log2) [1] | relative integration efficiency (log2) [2]
AATGTTGTTGATGCAACCATAAAGTGATATTTAATCAACCATAAAGTGATATTTAACTTAACCACAACAACCATATATTGATATCTCACAAAACAACCATAAGTTGATATTTTTGTGAATCGAGTATTTCAGCAAAACTACTGCAGTAAGAA | -0.257 ± 1.2 | -4.54 ± 1.2
AATGTTGTTGATGCAACCATAAAGTGATATTTAATCAACCATATATTGATATCTCAATTATTTATAATCAGCAACTTAACCACAAAAACAAAACAACCATAAGTTGATATTTTTGTGAATCGAGTATTTCAGCAAAACTACTGCAGTAAGAA | -0.334 ± 1.6 | -2.99 ± 0.87
AATGTTGTTGATGCAACCATAAAGTGATATTTAATCAACCATATATTGATATCTCACAAAACAACCATAAGTTGATATTTTTGTGAATCGAGTATTTCAGCAAAACTACTGCAGTAAGAAAGTTACTTCGTGGTATGGGAGGATCAAGGAGC | -0.405 ± 1 | -3.38 ± 1.4
AATGTTGTTGATGCAACCATAAAGTGATATTTAATCCGGCGGGCGCCGACTACCAGGCCAACACCCCACCAACGCGCGGTCGCGAGACACCCCACCAACGCCTGGTCGCGGGGGTGTCCGATCTGATTTCAGCAAAACTACTGCAGTAAGAA | -4.25 ± 1 | -6.75 ± 1.3
AATGTTGTTGATGCAACCATAAAGTGATATTTACAACCATAAAGTGATATTTAACTTAACCACAAAACAACCATATATTGATATCTCACAAAACAACCATAAGTTGATATTTTTGTGAATCGAGTATTTCAGCAAAACTACTGCAGTAAGAA | 1.11 ± 0.91 | -3.13 ± 0.76
AATGTTGTTGATGCAACCATAAAGTGATATTTACAACCATATATTGATATCTCACAAAACAACCATAAGTTGATATTTTATAATTATTTATAATCAGCAACTTAACCACAAAATGTGAATCGAGTATTTCAGCAAAACTACTGCAGTAAGAA | 0.848 ± 1 | -1.4 ± 0.65
AATGTTGTTGATGCAACCATAAAGTGATATTTACAACCATATATTGATATCTCACAAAACAACCATAAGTTGATATTTTTGTGAATCGAGTATTTCAGCAAAACTACTGCAGTAAGAAAGTTACTTCGTGGTATGGGAGGATCAAGGAGCCA | 0.662 ± 0.89 | -2.61 ± 1.1
AATGTTGTTGATGCAACCATAAAGTGATATTTACAACCATATATTGATATCTCACAAACAACCATAAGTTGATATTTTTGTGAATCGAGTATTTCAGCAAAACTACTGCAGTAAGAAAGTTACTTCGTGGTATGGGAGGATCAAGGAGCCAA | 2.04 ± 0.88 | -2 ± 0.74
AATGTTGTTGATGCAACCATAAAGTGATATTTACAACCATATATTGATATCTCACAACAACCATAAGTTGATATTTTTGTGAATCGAGTATTTCAGCAAAACTACTGCAGTAAGAAAGTTACTTCGTGGTATGGGAGGATCAAGGAGCCAAT | 2.75 ± 0.92 | -2.68 ± 0.7
AATGTTGTTGATGCAACCATAAAGTGATATTTACAACCATATATTGATATCTCACACAACCATAAGTTGATATTTTTGTGAATCGAGTATTTCAGCAAAACTACTGCAGTAAGAAAGTTACTTCGTGGTATGGGAGGATCAAGGAGCCAATA | 3.33 ± 0.87 | -2.53 ± 0.78
AATGTTGTTGATGCAACCATAAAGTGATATTTACAACCATATATTGATATCTCATAATTATTTATAATCAGCAACTTAACCACAAAAACAAAACAACCATAAGTTGATATTTTTGTGAATCGAGTATTTCAGCAAAACTACTGCAGTAAGAA | -0.75 ± 1.4 | -1.85 ± 0.76
AATGTTGTTGATGCAACCATAAAGTGATATTTACAACCATATATTGATATCTCTCACAACCATAAGTTGATATTTCTCTGATCATAGTCAGACCAACATTGCTACGACCCGTATTCGCACCGACACTGTGAATCGAGTATTTCAGCAAAACT | 2.61 ± 1.1 | -2.28 ± 0.64
AATGTTGTTGATGCAACCATAAAGTGATATTTACAACCATATATTGATATCTCTCACAACCATAAGTTGATATTTTTGTGAATCGAGTATTTCAGCAAAACTACTGCAGTAAGAAAGTTACTTCGTGGTATGGGAGGATCAAGGAGCCAATA | 3.04 ± 0.96 | -2.79 ± 0.97
AATGTTGTTGATGCAACCATAAAGTGATATTTACACGAAGTGGCAACTGCCGTGCTGGCGTGCGATGCAACCATATATTGATATCTCACAAAACAACCATAAGTTGATATTTTTGTGAATCGAGTATTTCAGCAAAACTACTGCAGTAAGAA | 0.496 ± 0.1 | -2.73 ± 0.84
AATGTTGTTGATGCAACCATAAAGTGATATTTACCGACTGCCTGCCATCCGCCGCCGCACCGCAGCCCAACCATATATTGATATCTCACAAAACAACCATAAGTTGATATTTTTGTGAATCGAGTATTTCAGCAAAACTACTGCAGTAAGAA | -3.03 ± 1.2 | -2.99 ± 0.89
